# Assay results reported in patent US20240060126.
# B1: T4 Dda-E94C/C109A/C136A/A360C (SEQ ID NO: 24 with mutations E94C/C109A/C136A/A360C) (protein)
# chain: MTFDDLTEGQKNAFNIVMKAIKEKKHHVTINGPAGTGKTTLTKFIIEALISTGETGIILAAPTHAAKKILSKLSGKEASTIHSILKINPVTYECNVLFEQKEVPDLAKARVLICDEVSMYDRKLFKILLSTIPPWATIIGIGDNKQIRPVDPGENTAYISPFFTHKDFYQCELTEVKRSNAPIIDVATDVRNGKWIYDKVVDGHGVRGFTGDTALRDFMVNYFSIVKSLDDLFENRVMAFTNKSVDKLNSIIRKKIFETDKDFIVGEIIVMQEPLFKTYKIDGKPVSEIIFNNGQLVRIIEAEYTSTFVKARGVPGEYLIRHWDLTVETYGDDEYYREKIKIISSDEELYKFNLFLGKTCETYKNWNKGGKAPWSDFWDAKSQFSKVKALPASTFHKAQGMSVDRAFIYTPCIHYADVELAQQLLYVGVTRGRYDVFYV
# Columns and labels:
# [1] = target: MspA-((Del-G75N76/A117/D118)D56N/E59R/G77S/L88N/D90N/D91N/Q126R/D134R/E139K)8
# [2] = target: MspA-((Del-L74/G75/D118/L119)E59Y/L88N/D90N/D91N/Q126R/D134R/E139K)8
# [3] = target: MspA-(D56N/E59R/G75S/G77S/L88N/D90N/D91N/D118R/Q126R/D134R/E139K)8
# [4] = target: MspA-((Del-L74/G75/D118/L119)D56N/E59Q/L88N/D90N/D91N/Q126R/D134R/E139K)8
# [5] = target: MspA-((Del-L74/G75/D118/L119)E59R/L88N/D90N/D91N/Q126R/D134R/E139K)8
# [6] = target: MspA-((Del-L74/G75/D118/L119)D56F/E59R/L88N/D90N/D91N/Q126R/D134R/E139K)8
# [7] = target: MspA-((Del-L74/G75/D118/L119)D56Y/E59R/L88N/D90N/D91N/Q126R/D134R/E139K)8
# [8] = target: MspA-((Del-F80/S81/G112/V13)D56N/E59R/G75S/G77S/L88N/D90N/D91N/D118R/Q126R/D134R/E139K)8
# [9] = target: MspA-(G75S/G77S/L88N/D90N/D91N/D118R/Q126R/D134R/E139K)8
# [10] = target: MspA-((Del-L74/G75/D118/L119)D56N/E59R/L88N/D90N/D91N/Q126R/D134N/E139K)8
# [11] = target: MspA-((Del-L74/G75/D118/L119)G1A/D56N/E59F/L88N/D90N/D91N/Q126R/D134R/E139K)8
# [12] = target: MspA-((Del-L74/G75/D118/L119)D56N/E59Y/L88N/D90N/D91N/Q126R/D134R/E139K)8
protein,measurement,setting,value
B1,Average Signal to Noise (S2N),[1],12.5
same,Mean Current Range,[1],15.8 pA
same,Mean Noise of the Signal,[1],1.27
same,Median Current Range,[1],15.8 pA
same,Median Noise of the Signal,[1],1.21
same,Standard Deviation of the Current Range,[1],1.69 pA
same,Standard Deviation of the Noise of the Signal,[1],0.24
same,Average Signal to Noise (S2N),[2],11
same,Mean Current Range,[2],15 pA
same,Mean Noise of the Signal,[2],1.36
same,Median Current Range,[2],14.9 pA
same,Median Noise of the Signal,[2],1.32
same,Median S2N,[2],11.9
same,Percentage of complement slipping forwards,[2],0.27%
same,Standard Deviation of S2N,[2],1.17
same,Standard Deviation of the Current Range,[2],1.72
same,Standard Deviation of the Noise of the Signal,[2],0.23
same,Average Signal to Noise (S2N),[3],11.9
same,Mean Current Range,[3],15.6 pA
same,Mean Noise of the Signal,[3],1.31
same,Median Current Range,[3],15.6 pA
same,Median Noise of the Signal,[3],1.24
same,Standard Deviation of the Current Range,[3],1.76
same,Standard Deviation of the Noise of the Signal,[3],0.26
same,Average Signal to Noise (S2N),[4],12.8
same,Mean Current Range,[4],15.6 pA
same,Mean Noise of the Signal,[4],1.22
same,Median Current Range,[4],15.5 pA
same,Median Noise of the Signal,[4],1.16
same,Median S2N,[4],13.3
same,Percentage of complement slipping forwards,[4],0.55%
same,Standard Deviation of S2N,[4],0.86
same,Standard Deviation of the Current Range,[4],1.72 pA
same,Standard Deviation of the Noise of the Signal,[4],0.25
same,Average Signal to Noise (S2N),[5],12.8
same,Mean Current Range,[5],16.1 pA
same,Mean Noise of the Signal,[5],1.26
same,Median Current Range,[5],16.2 pA
same,Median Noise of the Signal,[5],1.22
same,Standard Deviation of the Current Range,[5],1.84 pA
same,Standard Deviation of the Noise of the Signal,[5],0.24
same,Average Signal to Noise (S2N),[6],11.7
same,Mean Current Range,[6],15.6 pA
same,Mean Noise of the Signal,[6],1.33
same,Median Current Range,[6],15.6 pA
same,Median Noise of the Signal,[6],1.28
same,Median S2N,[6],12.3
same,Percentage of complement slipping forwards,[6],0.38%
same,Standard Deviation of S2N,[6],0.59
same,Standard Deviation of the Current Range,[6],1.92 pA
same,Standard Deviation of the Noise of the Signal,[6],0.24
same,slips forward per kilobase,[6],less than 5 slips forward per kilobase
same,Average Signal to Noise (S2N),[7],12.9
same,Mean Current Range,[7],15.9 pA
same,Mean Noise of the Signal,[7],1.24
same,Median Current Range,[7],15.9 pA
same,Median Noise of the Signal,[7],1.19
same,Median S2N,[7],13.3
same,Percentage of complement slipping forwards,[7],0.6%
same,Standard Deviation of S2N,[7],1.12
same,Standard Deviation of the Current Range,[7],1.83 pA
same,Standard Deviation of the Noise of the Signal,[7],0.22
same,Average Signal to Noise (S2N),[8],13
same,Mean Current Range,[8],17.1 pA
same,Mean Noise of the Signal,[8],1.32
same,Median Current Range,[8],17.1 pA
same,Median Noise of the Signal,[8],1.22
same,Standard Deviation of the Current Range,[8],2.11 pA
same,Standard Deviation of the Noise of the Signal,[8],0.32
same,Average Signal to Noise (S2N),[9],11.4
same,Mean Current Range,[9],15.5 pA
same,Mean Noise of the Signal,[9],1.35
same,Median Current Range,[9],15.8 pA
same,Median Noise of the Signal,[9],1.35
same,Standard Deviation of the Current Range,[9],2.23
same,Standard Deviation of the Noise of the Signal,[9],0.14
same,Average Signal to Noise (S2N),[10],12.2
same,Mean Current Range,[10],16 pA
same,Mean Noise of the Signal,[10],1.31
same,Median Current Range,[10],16.1 pA
same,Median Noise of the Signal,[10],1.27
same,Median S2N,[10],12
same,Percentage of complement slipping forwards,[10],0.65%
same,Standard Deviation of S2N,[10],0.57
same,Standard Deviation of the Current Range,[10],1.93 pA
same,Standard Deviation of the Noise of the Signal,[10],0.21
same,slips forward per kilobase,[11],less than 5 slips forward per kilobase
same,Average Signal to Noise (S2N),[12],10.7
same,Mean Current Range,[12],15.9 pA
same,Mean Noise of the Signal,[12],1.48
same,Median Current Range,[12],15.9 pA
same,Median Noise of the Signal,[12],1.43
same,Median S2N,[12],10.4
same,Percentage of complement slipping forwards,[12],0.3%
same,Standard Deviation of S2N,[12],0.66
same,Standard Deviation of the Current Range,[12],1.92 pA
same,Standard Deviation of the Noise of the Signal,[12],0.24
same,slips forward per kilobase,[12],less than 5 slips forward per kilobase
